According to publication PMC10338342 (2023):

Legend:
[1] = molecular target: T1, nucleosome core particle: human histone octamer (H2A, H2B, H3.1, H4) wrapped by DNA (human, UniProt P04908 1-130; P06899 1-126; P68431 1-136; P62805 1-103); assay: FRET; NCP SHL-6.2; competition with His-MYC-MAX (800 nM)
[2] = molecular target: T1, nucleosome core particle: human histone …; assay: FRET; NCP SHL+5.8; competition with His-MYC-MAX (625 nM)

B1: CLOCK-BMAL1 bHLH PAS-AB heterodimer with BMAL1 R173A (complex)
chain 1: VEEDDKDKAKRVSRNKSEKKRRDQFNVLIKELGSMLPGNARKMDKSTVLQKSIDFLRKHKETTAQSDASEIRQDWKPTFLSNEEFTQLMLEALDGFFLAIMTDGSIIYVSESVTSLLEHLPSDLVDQSIFNFIPEGEHSEVYKILSTHLLESDSLTPEYLKSKNQLEFCCHMLRGTIDPKEPSTYEYVRFIGNFKSLTSVSTSTHNGFEGTIQRTHRPSYEDRVCFVATVRLATPQFIKEMCTVEEPNEEFTSRHSLEWKFLFLDHRAPPIIGYLPFEVLGTSGYDYYHVDDLENLAKCHEHLMQYGKGKSCYYRFLTKGQQWIWLQTHYYITYHQWNSRPEFIVCTHTVVSYAEVRAERRRELGIEESL
chain 2: not shown
With B1 as the binder, how does the IC50 [1] read?
The IC50 was over 3000 nM.

B2: CLOCK-BMAL1 bHLH PAS-AB heterodimer with BMAL1 Q385A (complex)
chain 1: VEEDDKDKAKRVSRNKSEKKRRDQFNVLIKELGSMLPGNARKMDKSTVLQKSIDFLRKHKETTAQSDASEIRQDWKPTFLSNEEFTQLMLEALDGFFLAIMTDGSIIYVSESVTSLLEHLPSDLVDQSIFNFIPEGEHSEVYKILSTHLLESDSLTPEYLKSKNQLEFCCHMLRGTIDPKEPSTYEYVRFIGNFKSLTSVSTSTHNGFEGTIQRTHRPSYEDRVCFVATVRLATPQFIKEMCTVEEPNEEFTSRHSLEWKFLFLDHRAPPIIGYLPFEVLGTSGYDYYHVDDLENLAKCHEHLMQYGKGKSCYYRFLTKGQQWIWLQTHYYITYHQWNSRPEFIVCTHTVVSYAEVRAERRRELGIEESL
chain 2: not shown
Which IC50 [1] does the source give for B2 here?
Its IC50 is over 3000 nM.

B3: CLOCK-BMAL1 bHLH PAS-AB heterodimer (complex)
chain 1: VEEDDKDKAKRVSRNKSEKKRRDQFNVLIKELGSMLPGNARKMDKSTVLQKSIDFLRKHKETTAQSDASEIRQDWKPTFLSNEEFTQLMLEALDGFFLAIMTDGSIIYVSESVTSLLEHLPSDLVDQSIFNFIPEGEHSEVYKILSTHLLESDSLTPEYLKSKNQLEFCCHMLRGTIDPKEPSTYEYVRFIGNFKSLTSVSTSTHNGFEGTIQRTHRPSYEDRVCFVATVRLATPQFIKEMCTVEEPNEEFTSRHSLEWKFLFLDHRAPPIIGYLPFEVLGTSGYDYYHVDDLENLAKCHEHLMQYGKGKSCYYRFLTKGQQWIWLQTHYYITYHQWNSRPEFIVCTHTVVSYAEVRAERRRELGIEESL
chain 2: not shown
With B3 as the binder, how does the IC50 [1] read?
Its IC50 is 1180 nM.

What about the IC50 [2] of the same binder?
The IC50 was 2320 nM.
